B1: P6.AA-EYFP (domain or fragment)
chain: MDQEYMELVFENGQILAKGQRSNVSLHNQRTKSIMDLYEAEYNEDFMKSIIHGGGGDQEYMELVFENGQILAKGQRSNTNMLESNKHVD
B2: P6.fus-EYFP (domain or fragment)
chain: MDQEYMELVFENGQILAKGQRSNAITNLGDTQVVPQSHVAAAHETNMLESNKHVD
B3: P3.AA-EYFP (domain or fragment)
chain: MVDEVVELVWENGQISTQSQSSRSRNIPPPQANSSRAREIGNGSKTTMVDEIPMSVPSLVDEVVELVWENGQISTQSQSSRSRFVPWLNHH
B4: AtPIF6 (1-100)-EYFP, P6.100 (domain or fragment, Arabidopsis thaliana, UniProt Q8L5W7 1-100, looked up)
chain: MMFLPTDYCCRLSDQEYMELVFENGQILAKGQRSNVSLHNQRTKSIMDLYEAEYNEDFMKSIIHGGGGAITNLGDTQVVPQSHVAAAHETNMLESNKHVD
notes: A. thaliana PIF6, residues 1-100; His6-SUMO only on the pET-19b construct that was purified; the pET-28c construct used in lysate has the same AtPIF part, linker and EYFP; also called P6.100-EYFP; source: E. coli BL21(DE3): in crude lysate (pET-28c), and purified (pET-19b; IMAC, SENP2 cleavage, second IMAC, optional anion exchange); not shown: His6-SUMO, N-terminal, cleaved
B5: AtPIF3 (1-100)-EYFP, P3.100 (domain or fragment, Arabidopsis thaliana, UniProt O80536 1-100, looked up)
chain: MPLFELFRLTKAKLESAQDRNPSPPVDEVVELVWENGQISTQSQSSRSRNIPPPQANSSRAREIGNGSKTTMVDEIPMSVPSLMTGLSQDDDFVPWLNHH
notes: A. thaliana PIF3, residues 1-100; His6-SUMO only on the pET-19b construct that was purified; the pET-28c construct used in lysate has the same AtPIF part, linker and EYFP; also called P3.100-EYFP; source: E. coli BL21(DE3): in crude lysate (pET-28c), and purified (pET-19b; IMAC, SENP2 cleavage, second IMAC, optional anion exchange); not shown: His6-SUMO, N-terminal, cleaved
B6: P3 (AtPIF3 1-100 without the N-terminal region preceding APB.A)-EYFP (domain or fragment)
chain: MVDEVVELVWENGQISTQSQSSRSRNIPPPQANSSRAREIGNGSKTTMVDEIPMSVPSLMTGLSQDDDFVPWLNHH
B7: P6.AAfus-EYFP (domain or fragment)
chain: MDQEYMELVFENGQILAKGQRSNDQEYMELVFENGQILAKGQRSNTNMLESNKHVD
B8: P3.A-EYFP (domain or fragment)
chain: MVDEVVELVWENGQISTQSQSSRSRNIPPPQANSSRAREIGN
B9: P3.AAfus-EYFP (domain or fragment)
chain: MVDEVVELVWENGQISTQSQSSRSRVDEVVELVWENGQISTQSQSSRSRFVPWLNHH
B10: P6 (AtPIF6 1-100 without the N-terminal region preceding APB.A)-EYFP (domain or fragment)
chain: MDQEYMELVFENGQILAKGQRSNVSLHNQRTKSIMDLYEAEYNEDFMKSIIHGGGGAITNLGDTQVVPQSHVAAAHETNMLESNKHVD

The first series deals with the molecule itself. The series is described as follows: SEC; AtPIF-EYFP variants or EYFP alone, 10 µM, not illuminated; Superdex 200 Increase 10/300 GL; 67 mM sodium phosphate pH 8.0, 200 mM NaCl.
Conditions: not given
On the technique in general: In gel filtration, larger molecules generally elute earlier.
B1: the stoichiometry N (as a rule, the number of molecules, sites or subunits per partner or assembly) is 2.
Same read-out and setting: for B2 the value was 2; for B3, 2.
Same read-out and setting: as for B4, the figure is 2; as for B5, 2; as for B6, 2.

The target in the next series is T1, Arabidopsis thaliana phytochrome B photosensory core module (AtPhyB PCM) (Arabidopsis thaliana, UniProt P14713 1-651, covalently incorporated bilin chromophore (PCB; co-expressed Synechocystis sp. heme oxygenase 1 and pcyA)).
T1 construct: A. thaliana phytochrome B, photosensory core module (PAS-GAF-PHY with N-terminal extension), residues 1-651; Pr state (far-red light or dark) and Pfr state (red light; Pfr/Pr about 0.56/0.44) are told apart by the assays; In the cell experiments other constructs were used (PCM-VP16; PCM 1-650 with CAAX); source: E. coli BL21(DE3), plasmid pDG282, purified (Ni-NTA IMAC, anion exchange)
T1 sequence (looked up): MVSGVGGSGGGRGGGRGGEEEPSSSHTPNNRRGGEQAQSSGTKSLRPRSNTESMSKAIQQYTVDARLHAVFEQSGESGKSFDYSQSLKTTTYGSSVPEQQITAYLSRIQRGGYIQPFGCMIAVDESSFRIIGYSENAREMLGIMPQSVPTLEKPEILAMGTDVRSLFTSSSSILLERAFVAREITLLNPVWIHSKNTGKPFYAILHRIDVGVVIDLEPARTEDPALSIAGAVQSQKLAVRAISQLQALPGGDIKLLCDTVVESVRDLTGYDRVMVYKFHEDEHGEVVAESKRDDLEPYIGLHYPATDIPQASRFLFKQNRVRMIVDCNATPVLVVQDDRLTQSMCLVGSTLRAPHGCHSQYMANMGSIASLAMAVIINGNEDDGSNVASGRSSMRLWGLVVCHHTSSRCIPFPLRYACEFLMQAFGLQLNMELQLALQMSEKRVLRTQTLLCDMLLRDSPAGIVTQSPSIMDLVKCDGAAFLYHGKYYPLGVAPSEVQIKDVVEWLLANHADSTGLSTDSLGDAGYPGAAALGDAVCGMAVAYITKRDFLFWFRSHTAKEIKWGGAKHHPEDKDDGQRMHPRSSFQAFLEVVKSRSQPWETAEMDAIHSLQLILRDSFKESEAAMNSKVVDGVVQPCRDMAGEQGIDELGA
The series is described as follows: fluorescence polarisation; anisotropy of EYFP; 20 nM AtPIF-EYFP constant, AtPhyB PCM 0-10 µM titrated, far-red light (750 nm), Pr state; 20 mM HEPES/HCl pH 7.3, 10 mM NaCl, 100 µg/mL BSA; single-site isotherm. The following applies: both partners purified. A general note: Fluorescence polarisation rises when a labelled molecule tumbles more slowly, as on binding a larger partner.
In the case of B1, the Kd – broadly, the concentration at which binding is half-saturated – is over 2000 nM.
Regarding B7, the Kd is over 10000 nM.
In turn, B2 displayed a Kd of over 10000 nM.
On the same count and under the same terms, as for MVDEVVELVWENGQISTQSQSSRSRMTGLSQDDDFVPWLNHH (domain or fragment) [P3.fus-EYFP], the figure is over 10000 nM; as for MVDEVVELVWENGQISTQSQSSRSR (domain or fragment) [P3.As-EYFP], over 10000 nM; as for B8, over 10000 nM.
Take B3: the Kd was over 3000 nM.
MDQEYMELVFENGQILAKGQRSNVSLHNQRTKSIMDLYEA (domain or fragment) [P6.A-EYFP] returned a dissociation constant Kd of over 2000 nM.
On the same count and under the same terms, as for MDQEYMELVFENGQILAKGQRSN (domain or fragment) [P6.As-EYFP], the figure is over 10000 nM; as for B5, over 2000 nM.
Same read-out and setting: for B6 the value was over 10000 nM; for B9, over 10000 nM.

Another series addresses T1, Arabidopsis thaliana phytochrome B …. The series is described as follows: fluorescence polarisation; anisotropy of EYFP; 20 nM AtPIF-EYFP constant, AtPhyB PCM 0-10 µM titrated, red light (640 nm), Pfr state; KD corrected for the Pfr fraction (about 0.56); 20 mM HEPES/HCl pH 7.3, 10 mM NaCl, 100 µg/mL BSA; single-site isotherm. The conditions noted are these: both partners purified.
Take B1: the Kd was found to be 360 ± 40 nM.
B7 showed a Kd of 230 ± 30 nM.
On the same count and under the same terms, as for B2, the figure is 200 ± 90 nM; as for MVDEVVELVWENGQISTQSQSSRSRMTGLSQDDDFVPWLNHH (domain or fragment) [P3.fus-EYFP], 270 ± 60 nM.
Still for that read-out and setting: as for MVDEVVELVWENGQISTQSQSSRSR (domain or fragment) [P3.As-EYFP], the figure is 680 ± 60 nM; as for B8, 220 ± 40 nM.
The same measure, in the same setting: for B3 the value was 370 ± 40 nM; for MDQEYMELVFENGQILAKGQRSNVSLHNQRTKSIMDLYEA (domain or fragment) [P6.A-EYFP], 280 ± 100 nM; for MDQEYMELVFENGQILAKGQRSN (domain or fragment) [P6.As-EYFP], 710 ± 80 nM.
In turn, MDQEYMELVFENGQILAKGQ (domain or fragment) [P6.A19-EYFP] returned a Kd of over 2000 nM.
Still for that read-out and setting: as for MVDEVVELVWENGQISTQSQ (domain or fragment) [P3.A19-EYFP], the figure is over 1000 nM.
Still for that read-out and setting: as for B10, the figure is 10 ± 7 nM; as for B4, 10 ± 8 nM.
Same read-out and setting: for B5 the value was 200 ± 70 nM; for B6, 220 ± 40 nM; for B9, 230 ± 50 nM.

A further series has as its target B8. As to the kind of experiment: SEC; AtPIF-EYFP variants or EYFP alone, 10 µM, not illuminated; Superdex 200 Increase 10/300 GL; 67 mM sodium phosphate pH 8.0, 200 mM NaCl.
Conditions: not given
For B8, the stoichiometry N worked out at 2.

Values taken from publication PMC6888877, “Deconstructing and repurposing the light-regulated interplay between Arabidopsis phytochromes and interacting factors” (Communications Biology, 2019).
